From doi:10.1101/2021.07.22.453419 (2021)

Molecular target: T1, Papain (E.C.3.4.22.2, from papaya latex) (papaya, UniProt P00784 134-345)
T1 chain: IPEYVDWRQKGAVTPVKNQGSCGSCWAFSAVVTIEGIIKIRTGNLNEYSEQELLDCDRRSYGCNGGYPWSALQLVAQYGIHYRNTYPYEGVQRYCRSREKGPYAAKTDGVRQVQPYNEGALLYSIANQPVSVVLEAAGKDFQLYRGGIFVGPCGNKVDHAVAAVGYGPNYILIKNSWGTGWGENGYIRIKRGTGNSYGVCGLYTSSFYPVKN

B1: tomato cystatin SlCYS8 (natural protein)
chain: NPGGITNVPFPNLPQFKDLARFAVQDYNKKENAHLEFVENLNVKEQVVAGIIYYITLVATDAGKKKIYETKILVKGWENFKEVQEFKLVGDATK
Ki: 14.7 nM
